From patent publication US8025878 (BIOARCTIC NEUROSCIENCE, dated 2011)
Substitutions are numbered along the chain they refer to.

T1: C-terminal fragment of Aβ (UniProt P05067 688-711)
T1 construct: domain: C-terminal fragment of Aβ; also called Aβ fragment 17-40
T1 peptide (looked up): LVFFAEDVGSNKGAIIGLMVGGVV

T2: islet amyloid polypeptide (IAPP) fibrils (UniProt P10997 34-70, not fully specified)
T2 construct: Fibrils immobilized on a nitrocellulose membrane
T2 peptide (looked up): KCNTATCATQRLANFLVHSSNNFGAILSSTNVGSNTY

T3: medin fibrils (UniProt Q08431 268-317, not fully specified)
T3 construct: Fibrils immobilized on a nitrocellulose membrane
T3 peptide (looked up): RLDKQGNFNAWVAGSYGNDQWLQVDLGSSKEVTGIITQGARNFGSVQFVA

B1: mouse monoclonal antibody 158 (mAb158) (antibody, V domains shown)
VH: DVQLVESGGGLVQPGGSRKLSCAASGFTFSSFGMHWVRQAPEKGLEWVAYISSGSSTIYYGDTVKGRFTISRDNPKNTLFLQMTSLRSEDTAMYYCAREGGYYYGRSYYTMDYWGQGTSVTVSS
VL: DVLMTQTPLSLPVSLGDQASISCRSSQSIVHSNGNTYLEWYLQKPGQSPKLLIYKVSNRFSGVPDRFSGSGSGTDFTLKISRVEAEDLGIYYCFQGSHVPPTFGGGTKLEIK
notes: Mouse hybridoma IgG with a kappa light chain; In the sandwich ELISA the detecting copy was biotinylated; also called BA9
B2: humanized 158 antibody (BAN2401) (antibody, V domains shown)
VH: EVQLVESGGGLVQPGGSLRLSCSASGFTFSSFGMHWVRQAPGKGLEWVAYISSGSSTIYYGDTVKGRFTISRDNAKNSLFLQMSSLRAEDTAVYYCAREGGYYYGRSYYTMDYWGQGTTVTVS
VL: B1 VL with L3V, T7S, S14T, L15P, D17A, Q18P, K79R, L88V, G105P
B3: Aβ1-16 (peptide, UniProt P05067 672-687, looked up)
peptide: DAEFRHDSGYEVHHQK
notes: domain: Aβ1-16; also called N-terminal part of the Aβ peptide; Aβ1-16 peptide

Tests used:
[1] = target: T1, C-terminal fragment of Aβ; assay: competitive ELISA, plate coated with Aβ protofibrils
Experimental: (§1) From competitive ELISA experiments, the antibody has a strong affinity for human Aβ42 wild-type protofibrils, but only very weak affinity for the N-terminal part of the Aβ peptide and Aβ monomers.
In FIG. 2B a competitive ELISA is shown. An ELISA plate was coated with human Aβ protofibrils. […] The incubation mix was added to the microtiter plate wells and free antibody was allowed to bind to immobilized protofibrils in the wells.

[2] = target: B3; assay: mAb158 sandwich ELISA with excess Aβ1-16 added to 50 pM Aβ protofibrils
Excerpt: (§2) A large excess of monomeric Aβ, holoAPP and APP-fragments, naturally occurring in biological samples, could interfere with the Aβ protofibril analysis by occupying binding sites of the capture antibody coat, thus inhibiting the protofibrils from binding. This problem was investigated by adding an increasing excess of Aβ1-16 to a fixed concentration of Aβ protofibrils (50 pM, expressed as monomer units) and analyzing it with both the mAb158 ELISA and a 6E10-6E10 sandwich ELISA (FIG. 6C). […] Moreover, when synthetic Aβ protofibrils was added to mock HEK cell culture media or non-transgenic mouse brain homogenates, 90% of the signal was recovered (data not shown).

[3] = target: T4, Aβ fibrils (UniProt P05067 672-713); assay: sandwich ELISA, mAb158 as capture and biotinylated mAb158 as detector
T4 construct: Insoluble fibrillar aggregate
T4 sequence (P05067 672-713): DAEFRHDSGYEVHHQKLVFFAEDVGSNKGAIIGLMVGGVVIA
Experimental: as §1
In FIG. 2A a sandwich ELISA is shown. […] Colour development was measured according to the procedure recommended by the manufacturer.

[4] = target: T5, AβArc protofibrils (human, UniProt P05067 672-713, limits assumed); assay: sandwich ELISA, mAb158 as both capturing and detecting antibody
T5 construct: Used for a standard curve in the mAb158 sandwich ELISA; also called Arctic Aβ protofibrils
T5 sequence (P05067 other isoform, or with tags, fused parts or gaps limits assumed): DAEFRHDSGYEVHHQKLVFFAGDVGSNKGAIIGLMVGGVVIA
Excerpt: Establishment of an Aβ protofibril specific sandwich ELISA. To enable measurements of Aβ protofibrils in biological samples a sandwich ELISA with mAb158 as both capturing and detecting antibody was established. This assay measures Aβ protofibrils with a detection limit of 1 pM and with a linear range up to 250 pM (FIG. 6A, lines indicate linear regression of the standard curves). Due to uncertainties concerning the size of the Aβ protofibrils used in the standard curve, the concentration 1 pM is based on the molecular weight of one Aβ monomer (4514 g/mol), Though, since the molecular weight of a protofibril has been estimated to be at least 100 kDa, the limit of detection calculated as molar Aβ protofibrils could be as low as 50 fM. A standard curve of AβArc protofibrils gave a lower signal than wild type Aβ protofibrils, possibly due to differences in Aβ protofibril size (FIGS. 6A, 6B). Titrated synthetic LMW-Aβ (Low Molecular Weight Aβ). By the term "Low Molecular Weight Aβ", it is meant monomers, dimers and trimers of Aβ having a molecular weight of approximately 4-12 kDa. Aβ protofibrils and Aβ1-16 were used to validate the conformation specificity of the ELISA (FIG. 6B), where the hydrophilic Aβ1-16 peptide was used since it is not expected to aggregate. […]

[5] = target: T2, islet amyloid polypeptide (IAPP) fibrils; assay: dot blot, fibrils on nitrocellulose membrane
Excerpt: (§3) Due to technical difficulties in generating protofibrils from other amyloidogenic proteins than Aβ, mAb158 was instead tested against different amyloid fibrils. The dot blot assay was used for these experiments since inhibition ELISA, where the antibody-antigen reactions take place in solution, is not suitable for insoluble antigens like fibrils. The dot blot assay is however not suitable for evaluation of antibody specificity for various Aβ forms, i.e. for measuring differences in selectivity for profibrils and fibrils. […] As positive controls the antibodies 6E10 (Aβ), pAb179 (medin), pAbA110 (IAPP) and mAb211 (α-synuclein) were used (FIG. 5B). Representative blots from repeated experiments (n=3).

[6] = target: α-synuclein fibrils (UniProt P37840 1-140); assay: dot blot, fibrils on nitrocellulose membrane
Excerpt: as §3

[7] = target: T3, medin fibrils; assay: dot blot, fibrils on nitrocellulose membrane
Excerpt: as §3

[8] = target: T6, human Aβ42 wild-type protofibrils (human, UniProt P05067 672-713); assay: competitive ELISA with monomeric and protofibrillar Aβ
T6 construct: domain: Aβ42; Soluble oligomeric aggregate of many Aβ42 peptides; also called Aβ protofibrils; human wild-type Aβ protofibrils
T6 sequence (P05067 672-713 limits assumed): as the sequence (P05067 672-713) above

[9] = target: B1; assay: mAb158 sandwich ELISA, Aβ1-16 competing with 50 pM Aβ protofibrils
Excerpt: as §2

[10] = target: 6E10; assay: 6E10-6E10 sandwich ELISA, Aβ1-16 competing with 50 pM Aβ protofibrils
6E10, sequence (VH, as listed by the source, chain 1 of 2): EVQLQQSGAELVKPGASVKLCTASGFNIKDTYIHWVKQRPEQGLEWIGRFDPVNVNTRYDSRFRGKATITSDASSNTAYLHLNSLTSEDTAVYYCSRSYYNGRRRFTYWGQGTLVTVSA
6E10, sequence (VL, as listed by the source, chain 2 of 2): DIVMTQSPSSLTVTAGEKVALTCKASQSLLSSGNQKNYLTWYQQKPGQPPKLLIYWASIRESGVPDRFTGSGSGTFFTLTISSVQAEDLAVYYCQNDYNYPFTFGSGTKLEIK
Excerpt: as §2

Binder: B1
- binding result [1]: no binding
- binding result [2]: binds
- fold less cross-reactivity than with Aβ protofibrils [3]: < 40 fold
- binding result [4]: binds
- binding result [5]: no binding
- binding result [6]: no binding
- binding result [7]: no binding

Binder: B2
- binding result [8]: binds

Binder: B3
- molar excess of Aβ1-16 over Aβ protofibrils that did not disturb the signal [9]: 500000 fold
- molar excess of Aβ1-16 over Aβ protofibrils enough to decrease the signal [10]: 500 fold
